Measurements: US20210032351A1 (XDCEXPLORER SHANGHAI, published 2021)
Substitutions are numbered along the chain they refer to.

B1: Murine anti-56F10 (antibody, V domains shown)
VH: EVQLQQSGAELVKPGASVKLSCTASGFNIKDFYMHWVKQRTEQGLEWIGRIDPEDGETKYAPKFQGKATITADTSSNTAYLQLSSLTSEDTAVYYCGCRTGGFAYWGQGTLVTVSA
VL: QIVLTQSPAIMSASPGEKVTMTCSASSSVSYLYWYQQKPGSSPSLLIYDTSNLASGVPVRFSGSGSGTSYSLTISRMEAEDAATYYCQQWSRNPWTFGGGTKLEIK
notes: murine hybridoma antibody; also called 56F10G2
B2: Murine anti-59G3 (antibody, V domains shown)
VH: DVQLQESGPGLVKPSQSLSLTCSVTGYSITSGYYWHWIRQFPENKLEWMGYISYDGSNIYNPSLKNRISITRDTSKNQFFLKLNSVTTEDTATYYCAINSDYALDYWGQGTSVTVSS
VL: B1 VL with L32M, S44R, R92S, N93Y, P94S, W95L, G99A, I105L
notes: murine hybridoma antibody; also called 59G3F12
B3: Murine anti-53D8 (antibody, V domains shown)
VH: QVQLQQSGAELARPGASVKMSCKASGYTFTSYTMHWVKQRPGQGLEWIGYINPSSGYTKYNQIFKDKATLTADKSSSTAYMQLSSLTSEDSAVYYCTRGGGRGFAYWGQGTLVTVSA
VL: DILMTQSPSSMSVSLGDTVSITCHASQDINSNIGWLQQKPGKSFKGLIYHGTNLEDGVPSRFSGSGSGADYSLTISSLESEDFADYYCVQYAQFPFTFGSGTKLEIK
notes: murine hybridoma antibody; also called 53D8H4
B4: c75G7C6-1 (antibody, human IgG1, V domains shown)
VH: EVQLQQSGPELVKPGASVKIPCKASGYTFTDYNMDWVKQSHGKSLEWIGDINPNNADTIYNQKFKGKATLTVDKSSSTAYMELRSLTSEDTAVYYCARGDYDGYYPVYYAMDYWGQGTSVTVSS
VL: ENVLTQSPAIMSASPGEKVTMTCRASSSVSSSYLHWYQQKSGASPKLWIFSTSNLAAGVPARFSGSGSGTSYSLTVSSVEAEDAATYYCQQYSGYPLTFGAGTKLELK
notes: Chimeric 75G7C6 with NG of heavy chain CDR2 mutated to NA; also called c754G7C6-1; mutant chimeric antibody NG/NA
B5: c75G7C6-3 (antibody, human IgG1, V domains shown)
VH: B4 VH with A56G, D102E
VL: B4 VL
notes: Chimeric 75G7C6 with DG of heavy chain CDR3 mutated to EG; Human IgG1/kappa; also called mutant chimeric antibody DG/EG
B6: c75G7C6-2 (antibody, human IgG1, V domains shown)
VH: B4 VH with N55Q, A56G
VL: B4 VL
notes: Chimeric 75G7C6 with NG of heavy chain CDR2 mutated to QG; also called c754G7C6-2; mutant chimeric antibody NG/QG

Each binder was assayed against T1, human EGFRvIII-hFc protein (human, UniProt P00533 25-645) (assay: ELISA, coated EGFRvIII-hFc, antibody 0.01 nM).
T1 construct: extracellular domain; made in HEK293 cells, purified on protein A; also called immunogen A; hFc-tagged EGFRvIII protein; not shown: human IgG Fc fragment (hFc) of the pCpC vector
Description: (§1) The purified immunogen A (EGFRvIII-hFc) obtained in example 1 (for the preparation method, see step (I) in example 1) is diluted with PBS to a final concentration of 1.0 μg/mL, and then added to a 96-well ELISA plate at 100 μl/well. The plate is sealed with a plastic film and incubated at 4° C. overnight. The next day, the plate is washed twice with a plate washing solution [PBS+0.01% (v/v) Tween20], and added with a blocking solution [PBS+0.01% (v/v) Tween20+1% (w/w) BSA] for blocking 2 hours at room temperature. The blocking solution is discarded, and the purified EGFRvIII antibody obtained in example 2 is added at 100 μl/well. The plate is incubated for 2 hours at 37° C., and then washed 3 times with the plate washing solution [PBS+0.01% (v/v) Tween20]. The plate is added with an HRP (horseradish peroxidase) labeled secondary antibody (purchased from Sigma), incubated at 37° C. for 2 hours, and then washed 3 times with the plate washing solution [PBS+0.01% (v/v) Tween20]. The plate is added with 100 μl of TMB substrate/well, incubated for 30 minutes at room temperature, and then added with 100 μl of stopping solution (1.0N HCl)/well. A450 nm value is read using an ELISA plate reader (SpectraMax 384plus, purchased from Molecular Device), and the results are shown in FIG. 6 and table 10.

OD450 nm	Binder
0.11	B1
0.13	B2
0.16	B3

Each binder was assayed against T2, human EGFRvIII protein on the cell surface (human, UniProt P00533 25-1210) (assay: FACS on CHOk1-EGFRvIII cells).
T2 construct: whole, on cells; the cell line is named under assay; also called hEGFRvIII; U87MG-hEGFRvIII
Description: The desired cells are subjected to an expanded culture to 90% confluence in a T-75 cell culture flask; the medium is sucked out, and the cells are washed twice with a HBSS buffer (Hanks Balanced Salt Solution) (purchased from Invitrogen), and then treated with an enzyme-free cell dissociation solution (Versene solution: purchased from Life Technology) and collected. The cells are washed twice with the HBSS buffer and are counted, and then the cells are diluted with the HBSS buffer to 2×10⁶ cells/ml, added with 1% goat serum blocking solution, with the percentage being the mass percentage, and incubated on ice for 30 minutes, and then centrifugally washed twice with the HBSS buffer. The collected cells are suspended to 2×10⁶ cells/mL with an FACS buffer (HBSS+1% BSA, with the percentage being the mass percentage), added to a 96-well FACS reaction plate at 100 μL/well, then added with 100 μL/well of the purified EGFRvIII antibody (samples to be tested) obtained in example 2, and incubated on ice for 2 hours. The plate is centrifugally washed twice with the FACS buffer, added with 100 μL/well of a fluorescence (Alexa 488) labeled secondary antibody (purchased from Invitrogen), and then incubated on ice for 1 hour. The plate is centrifugally washed 3 times with the FACS buffer, added with 100 μL/well of a fixing solution [4% (v/v) paraformaldehyde] for suspending the cells, and centrifugally washed twice with the FACS buffer after 10 minutes. The cells are suspended in 100 μL of the FACS buffer, and the results are detected and analyzed by FACS (FACS Calibur, purchased from BD). Data analysis is performed by using the software (CellQuest) to obtain the mean fluorescence intensity (MFI) of the cells. Data is further analyzed by using the software (GraphPad Prism5) to perform data fitting and calculate EC50. […] A431 cells (human epidermal cell cancer cell lines) have a large amount of wild-type EGFR protein expressed on the surface thereof.

EC50 [nM]	Maximum mean fluorescence intensity [MFI]	Binder
7.45	110000	B4
24.8	94100	B5
11.6	111000	B6

What follows are binders tested against T3, human EGFR protein (wild-type), on cells (human, UniProt P00533 25-1210) (assay: FACS on U87MG and HEB cells).
T3 construct: whole, on cells; transfected on CHO-K1 cells; endogenous on the human cell lines; the cell is named under assay; also called wild-type EGFR; hEGFR
Description: (§2) The collected cells are suspended to 2×10⁶ cells/mL with an FACS buffer (HBSS+1% BSA, with the percentage being the mass percentage), added to a 96-well FACS reaction plate at 100 μL/well, then added with 100 μL/well of the purified EGFRvIII antibody (samples to be tested) obtained in example 2, and incubated on ice for 2 hours. The plate is centrifugally washed twice with the FACS buffer, added with 100 μL/well of a fluorescence (Alexa 488) labeled secondary antibody (purchased from Invitrogen), and then incubated on ice for 1 hour. The plate is centrifugally washed 3 times with the FACS buffer, added with 100 μL/well of a fixing solution [4% (v/v) paraformaldehyde] for suspending the cells, and centrifugally washed twice with the FACS buffer after 10 minutes. The cells are suspended in 100 μL of the FACS buffer, and the results are detected and analyzed by FACS (FACS Calibur, purchased from BD). Data analysis is performed by using the software (CellQuest) to obtain the mean fluorescence intensity (MFI) of the cells. Data is further analyzed by using the software (GraphPad Prism5) to perform data fitting and calculate EC50. […] A431 cells (human epidermal cell cancer cell lines) have a large amount of wild-type EGFR protein expressed on the surface thereof. […] U87MG cells (human glioma cell lines) have a small amount of wild-type EGFR protein expressed on the surface thereof, while HEB cells (human glioma cell lines) have a high level of wild-type EGFR protein expression on the surface thereof.

binding result	Binder
no binding	B1
no binding	B2
no binding	B3

What follows are binders tested against T1, human EGFRvIII-hFc protein (assay: ELISA, coated EGFRvIII-hFc, antibody 0.001 nM).
Description: as §1

OD450 nm	Binder
0.1	B1
0.08	B2
0.1	B3

Each binder was assayed against T1, human EGFRvIII-hFc protein (assay: ELISA, coated EGFRvIII-hFc, antibody 100 nM).
Description: as §1

OD450 nm	Binder
3.61	B1
3.71	B2
3.72	B3

Each binder was assayed against T4, human wild-type EGFR protein on the cell surface (human, UniProt P00533 25-1210) (assay: FACS on CHOk1-EGFR cells).
T4 construct: whole, on cells; Endogenous on A431, HEB, U87MG cells and normal human primary hepatocytes; transfected on CHOk1-EGFR cells; The cell is named under assay; also called A431; HEB
Description: as §2, with “The cells are washed twice with the HBSS buffer and are counted, and then the cells are diluted with the HBSS buffer to 2×10⁶ cells/ml, added with 1% goat serum blocking solution, with the percentage being the mass percentage, and incubated on ice for 30 minutes, and then centrifugally washed twice with the HBSS buffer. The collected” for “The collected”

EC50 [nM]	Maximum mean fluorescence intensity [MFI]	Binder
11.3	134000	B4
44.8	84700	B5
16.9	130000	B6

These binders were tested against T1, human EGFRvIII-hFc protein (assay: ELISA, coated EGFRvIII-hFc, antibody 1 nM).
Description: as §1

OD450 nm	Binder
0.98	B1
2.68	B2
3.2	B3

Each binder was assayed against T1, human EGFRvIII-hFc protein (assay: ELISA, coated EGFRvIII-hFc, antibody 0.1 nM).
Description: as §1

OD450 nm	Binder
0.18	B1
0.49	B2
0.64	B3

What follows are binders tested against T1, human EGFRvIII-hFc protein (assay: ELISA, coated EGFRvIII-hFc, antibody 10 nM).
Description: as §1

OD450 nm	Binder
3.53	B1
3.67	B2
3.69	B3

These binders were tested against T1, human EGFRvIII-hFc protein (assay: ELISA, coated EGFRvIII-hFc, antibody 0.0001 nM).
Description: as §1

OD450 nm	Binder
0.09	B1
0.08	B2
0.09	B3

These binders were tested against T5, human EGFRvIII-hFc protein (human, UniProt P00533 25-645) (assay: ELISA, EGFRvIII-hFc coated).
T5 construct: extracellular domain; also called immunogen A; hFc-tagged EGFRvIII protein; not shown: human IgG Fc fragment (hFc) of the pCpC vector
Description: as §1, with “temperature. […]” for “temperature. The blocking solution is discarded, and the purified EGFRvIII antibody obtained in example 2 is added at 100 μl/well.”, “FIG. 11” for “FIG. 6”, “table 19.” for “table 10.”

EC50 [nM]	Maximum OD450 value [OD450]	Binder
0.02	3.44	B4
0.54	1.86	B5
0.03	3.23	B6
